In data set [1] the test system is HeLa Kyoto. In words: solubility in G1/S (NP-40 vs SDS abundance) (log2 ratio); higher = more soluble. Conditions: cell cycle stage: G1/S.
The subject of data set [2] is HeLa Kyoto. Description: melting temperature (median over replicates), in situ; higher = more thermally stable.
For data set [3], the system named is HeLa Kyoto. In words: solubility change mitosis vs G1/S (difference of NP-40 vs SDS log2 ratios) (log2 ratio difference); higher = more soluble in mitosis.
The test system of data set [4] is HeLa Kyoto. Description: thermal stability score vs G1/S (z-score of summed log2 fold changes over temperatures); higher = more thermally stable than in G1/S.
[5] abbreviates: cell cycle stage: early G1 (4.5 h after nocodazole release).

Experimental findings from the supplement of paper PMC5998384 are described below.
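Wherever melting temperature (median over replicates), in situ is given: HeLa Kyoto cells synchronized by double thymidine or nocodazole block, proteins quantified by TMT10plex mass spectrometry, three independent biological replicates.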
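Wherever solubility change mitosis vs G1/S (difference of NP-40 vs SDS log2 ratios) is given: synchronized HeLa Kyoto cells (double thymidine block for G1/S, nocodazole release for mitosis), protein amounts in NP-40 versus SDS lysates quantified by mass spectrometry, three biological replicates.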
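Wherever solubility in G1/S (NP-40 vs SDS abundance) is given: HeLa Kyoto cells arrested at G1/S by double thymidine block, proteins quantified by TMT10plex mass spectrometry in mild NP-40 versus SDS extracts, three biological replicates.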
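Wherever thermal stability score vs G1/S (z-score of summed log2 fold changes over temperatures) is given: synchronized HeLa Kyoto cells, proteins quantified by TMT10plex mass spectrometry, three biological replicates, mitosis taken 0.5 h after nocodazole release, G1/S directly after double thymidine block.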

As to “MSGTKPDILWAPHHVDRFVVCDSELSLYHVESTVNSELKAGSLRLSEDSAATLLSINSDTPYMKCVAWYLNYDPECLLAVGQANGRVVLTSLGQDHNSKFKDLIGKEFVPKHARQCNTLAWNPLDSNWLAAGLDKHRADFSVLIWDICSKYTPDIVPMEKVKLSAGETETTLLVTKPLYELGQNDACLSLCWLPRDQKLLLAGMHRNLAIFDLRNTSQKMFVNTKAVQGVTVDPYFHDRVASFYEGQVAIWDLRKFEKPVLTLTEQPKPLTKVAWCPTRTGLLATLTRDSNIIRLYDMQHTPTPIGDETEPTIIERSVQPCDNYIASFAWHPTSQNRMIVVTPNRTMSDFTVFERISLAWSPITSLMWACGRHLYECTEEENDNSLEKDIATKMRLRALSRYGLDTEQVWRNHILAGNEDPQLKSLWYTLHFMKQYTEDMDQKSPGNKGSLVYAGIKSIVKSSLGMVESSRHNWSGLDKQSDIQNLNEERILALQLCGWIKKGTDVDVGPFLNSLVQEGEWERAAAVALFNLDIRRAIQILNEGASSEKGDLNLNVVAMALSGYTDEKNSLWREMCSTLRLQLNNPYLCVMFAFLTSETGSYDGVLYENKVAVRDRVAFACKFLSDTQLNRYIEKLTNEMKEAGNLEGILLTGLTKDGVDLMESYVDRTGDVQTASYCMLQGSPLDVLKDERVQYWIENYRNLLDAWRFWHKRAEFDIHRSKLDPSSKPLAQVFVSCNFCGKSISYSCSAVPHQGRGFSQYGVSGSPTKSKVTSCPGCRKPLPRCALCLINMGTPVSSCPGGTKSDEKVDLSKDKKLAQFNNWFTWCHNCRHGGHAGHMLSWFRDHAECPVSACTCKCMQLDTTGNLVPAETVQP [MIOS]”, in the data set on HeLa Kyoto [1], the “solubility in G1/S (log2)” value was -0.271. Besides, the melting temperature in the data set on HeLa Kyoto [2] (cell cycle stage: G1/S) was 53.9 °C; in the data set on HeLa Kyoto [2] (cell cycle stage: mitosis), 53 °C. Further, in the data set with HeLa Kyoto [3], the “solubility change mitosis (log2)” value is 0.0327. Moreover, the thermal stability score with HeLa Kyoto [4] (setting [5]) was -0.829; in the data set on HeLa Kyoto [4] (cell cycle stage: mitosis) it was -1.48.

With “MLAVHFDKPGGPENLYVKEVAKPSPGEGEVLLKVAASALNRADLMQRQGQYDPPPGASNILGLEASGHVAELGPGCQGHWKIGDTAMALLPGGGQAQYVTVPEGLLMPIPEGLTLTQAAAIPEAWLTAFQLLHLVGNVQAGDYVLIHAGLSGVGTAAIQLTRMAGAIPLVTAGSQKKLQMAEKLGAAAGFNYKKEDFSEATLKFTKGAGVNLILDCIGGSYWEKNVNCLALDGRWVLYGLMGGGDINGPLFSKLLFKRGSLITSLLRSRDNKYKQMLVNAFTEQILPHFSTEGPQRLLPVLDRIYPVTEIQEAHKYMEANKNIGKIVLELPQ [TP53I3]”, the “solubility in G1/S (log2)” value with HeLa Kyoto [1] is 0.373. Also, the melting temperature in the data set on HeLa Kyoto [2] (cell cycle stage: G1/S) stood at 58.7 °C; with HeLa Kyoto [2] (cell cycle stage: mitosis) it was 57.3 °C. In addition, the “solubility change mitosis (log2)” value with HeLa Kyoto [3] was -0.199. Besides, the thermal stability score in the data set on HeLa Kyoto [4] (setting [5]) was -2.64; with HeLa Kyoto [4] (cell cycle stage: mitosis), -1.51.

For EHBP1, the “solubility in G1/S (log2)” value in the data set on HeLa Kyoto [1] was 0.0745. The melting temperature was found to be 50.3 °C in the data set on HeLa Kyoto [2] (cell cycle stage: G1/S) and 52.4 °C in the data set on HeLa Kyoto [2] (cell cycle stage: mitosis). Moreover, the “solubility change mitosis (log2)” value with HeLa Kyoto [3] is -0.0155. For the same substance, the thermal stability score was found to be 0.393 in the data set on HeLa Kyoto [4] (setting [5]) and 0.935 in the data set with HeLa Kyoto [4] (cell cycle stage: mitosis).

As for “MPLKWKTSSPAIWKFPVPVLKTSRSTPLSPAYISLVEEEDQHMKLSLGGSEMGLSSHLQSSKAGPTRIFTSNTHSSVVLQGFDQLRLEGLLCDVTLMPGDTDDAFPVHRVMMASASDYFKAMFTGGMKEQDLMCIKLHGVSKVGLRKIIDFIYTAKLSLNMDNLQDTLEAASFLQILPVLDFCKVFLISGVTLDNCVEVGRIANTYNLTEVDKYVNSFVLKNFPALLSTGEFLKLPFERLAFVLSSNSLKHCTELELFKATCRWLRLEEPRMDFAAKLMKNIRFPLMTPQELINYVQTVDFMRTDNTCVNLLLEASNYQMMPYMQPVMQSDRTAIRSDTTHLVTLGGVLRQQLVVSKELRMYDEKAHEWKSLAPMDAPRYQHGIAVIGNFLYVVGGQSNYDTKGKTAVDTVFRFDPRYNKWMQVASLNEKRTFFHLSALKGYLYAVGGRNAAGELPTVECYNPRTNEWTYVAKMSEPHYGHAGTVYGGVMYISGGITHDTFQKELMCFDPDTDKWIQKAPMTTVRGLHCMCTVGERLYVIGGNHFRGTSDYDDVLSCEYYSPILDQWTPIAAMLRGQSDVGVAVFENKIYVVGGYSWNNRCMVEIVQKYDPDKDEWHKVFDLPESLGGIRACTLTVFPPEETTPSPSRESPLSAP [KLHL13]”, the “solubility in G1/S (log2)” value in the data set on HeLa Kyoto [1] was -0.13. Besides, the values for the melting temperature with HeLa Kyoto [2] (cell cycle stage: G1/S) and in the data set on HeLa Kyoto [2] (cell cycle stage: mitosis) were 52.2 °C and 50.4 °C, respectively. Also, in the data set with HeLa Kyoto [3], the “solubility change mitosis (log2)” value is -0.128. Moreover, the thermal stability score was -0.01 in the data set on HeLa Kyoto [4] (setting [5]) and 0.108 with HeLa Kyoto [4] (cell cycle stage: mitosis).

With “MLNMWKVRELVDKATNVVMNYSEIESKVREATNDDPWGPSGQLMGEIAKATFMYEQFPELMNMLWSRMLKDNKKNWRRVYKSLLLLAYLIRNGSERVVTSAREHIYDLRSLENYHFVDEHGKDQGINIRQKVKELVEFAQDDDRLREERKKAKKNKDKYVGVSSDSVGGFRYSERYDPEPKSKWDEEWDKNKSAFPFSDKLGELSDKIGSTIDDTISKFRRKDREDSPERCSDSDEEKKARRGRSPKGEFKDEEETVTTKHIHITQATETTTTRHKRTANPSKTIDLGAAAHYTGDKASPDQNASTHTPQSSVKTSVPSSKSSGDLVDLFDGTSQSTGGSADLFGGFADFGSAAASGSFPSQVTATSGNGDFGDWSAFNQAPSGPVASSGEFFGSASQPAVELVSGSQSALGPPPAASNSSDLFDLMGSSQATMTSSQSMNFSMMSTNTVGLGLPMSRSQNTDMVQKSVSKTLPSTWSDPSVNISLDNLLPGMQPSKPQQPSLNTMIQQQNMQQPMNVMTQSFGAVNLSSPSNMLPVRPQTNALIGGPMPMSMPNVMTGTMGMAPLGNTPMMNQSMMGMNMNIGMSAAGMGLTGTMGMGMPNIAMTSGTVQPKQDAFANFANFSK [CLINT1]”, the “solubility in G1/S (log2)” value in the data set on HeLa Kyoto [1] was -0.186. In addition, the melting temperature was 51.6 °C with HeLa Kyoto [2] (cell cycle stage: G1/S) and 51.9 °C with HeLa Kyoto [2] (cell cycle stage: mitosis). Further, the “solubility change mitosis (log2)” value in the data set on HeLa Kyoto [3] was -0.108. In addition, the results for the thermal stability score in the data set on HeLa Kyoto [4] (setting [5]) and in the data set with HeLa Kyoto [4] (cell cycle stage: mitosis) were 1.76 and 3.07, respectively.
